Legend:
[1] = target: Recombinant human CPP32 protein with a C-terminal 6His tag, (p17p12)2 tetramer (human) (UniProt P42574); test: cell-based or functional assay
[2] = target: CPP32 P12 subunit + Leu + Glu + 6 His (human) (UniProt P42574); test: analysis of the purified protein (SDS-PAGE, RP-HPLC, MALDI-TOF MS, N-terminal sequence and amino acid analysis)

Row | enzyme inhibited (CPP32 protease activity) [1] [%] | molar ratio [2] [mol/mol] | Molecule
1 | 99.9 |  | Ac-Asp-Val-Ala-Asp-fluoromethylketone (peptide)
2 |  | 1 | CPP32 P17 subunit (enzyme, human, UniProt P42574 29-175, looked up) SGISLDNSYKMDYPEMGLCIIINNKNFHKSTGMTSRSGTDVDAANLRETFRNLKYEVRNKNDLTREEIVELMRDVSKEDHSKRSSFVCVLLSHGEEGIIFGTNGPVDLKKITNFFRGDRCRSLTGKPKLFIIQACRGTELDCGIETD

Source: patent publication US20030138840A1
